“And” between values parts separate entries of the source, which are not always exact repeats. Identical values can stand only once. Residues, ends and D or L forms follow the SMILES beside them. *: point of attachment. Cbz = O=C(OCc1ccccc1)*
Tests used:
Assay type in all cases: biochemical
[1] = molecular target: T1, Aspergillus oryzae ATCC 20386 carboxypeptidase I (Aspergillus oryzae, UniProt Q2TZ11); assay: Substrate specificity of the carboxypeptidase (hydrolysis of N-CBZ-Ala-X / N-CBZ-Glu-X); settings: 2 mM substrate, 2 hour incubation, 4.9×10^−7 M carboxypeptidase
T1 sequence (Q2TZ11 19-555): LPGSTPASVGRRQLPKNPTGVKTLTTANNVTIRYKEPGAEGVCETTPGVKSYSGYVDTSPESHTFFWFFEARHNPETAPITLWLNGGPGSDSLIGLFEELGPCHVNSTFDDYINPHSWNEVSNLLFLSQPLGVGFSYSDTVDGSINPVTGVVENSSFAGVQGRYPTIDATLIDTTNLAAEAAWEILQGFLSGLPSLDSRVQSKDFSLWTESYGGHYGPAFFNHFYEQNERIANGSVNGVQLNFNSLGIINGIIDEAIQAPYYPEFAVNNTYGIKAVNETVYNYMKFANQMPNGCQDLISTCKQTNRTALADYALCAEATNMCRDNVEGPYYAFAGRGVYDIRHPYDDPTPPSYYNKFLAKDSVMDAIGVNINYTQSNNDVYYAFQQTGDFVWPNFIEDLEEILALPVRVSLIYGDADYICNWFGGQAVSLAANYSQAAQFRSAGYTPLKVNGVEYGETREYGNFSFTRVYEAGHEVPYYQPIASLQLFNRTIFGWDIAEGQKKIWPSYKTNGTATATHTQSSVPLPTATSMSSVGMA
Experimental: (§1) The substrate specificity of the carboxypeptidase was determined by measuring the hydrolysis of a substrate listed in Table 1 at pH 4.0 in 50 mM acetate buffer. o-Phthaldialdehyde together with dithiothreitol were used to monitor the liberation of free IIe, Glu, Lys, Arg, Asp, Asn, Gly, Phe, amd Tyr under enzymatic hydrolysis according to the procedure of Roth, M., 1971, Analytical Chemistry 43: 880. The kcat value for the hydrolysis of N-CBZ-Ala-X or N-CBZ-Glu-X was determined based on the assumption that molecular weight of the carboxypeptidase was 68 kD and that the enzyme preparation was homogeneous.

[2] = test system: Aspergillus oryzae ATCC 20386 carboxypeptidase I; assay: as above; settings: compared with literature values
Experimental: as §1

[3] = molecular target: T1, Aspergillus oryzae ATCC 20386 carboxypeptidase I; assay: Inhibition of the carboxypeptidase with 1,10-phenanthroline and phenylmethylsulfonyl fluoride; settings: furylacryloyl-Ala-Lys as substrate, pH 7.0, 20 mM phosphate buffer, hydrolysis monitored at 340 nm
Experimental: Inhibition of the carboxypeptidase with 1,10-phenanthroline and phenylmethylsulfonyl fluoride was evaluated using furylacryloyl-Ala-Lys as substrate at pH 7.0 in 20 mM phosphate buffer where hydrolysis was monitored at 340 nm.

[4] = substrate: C[C@H](NC(=O)/C=C/c1ccco1)C(=O)N[C@@H](CCCCN)C(=O)O; assay: Km of the carboxypeptidase toward furylacryloyl-Ala-Lys; settings: other: pH 4.0, 25° C.
[5] = test system: Soy Meal; assay: Protein hydrolysis, degree of hydrolysis (DH), soy meal; settings: Soy Meal 2% (w/v), pH 7.0, 18 hours at 50° C.; FLAVOURZYME 3 LAPU, carboxypeptidase 11.5 CPDU
Experimental: (§2) Commercial grade soy meal, wheat gluten, casein and gelatin were used as protein substrates. The soy meal was prepared from defatted toasted soy grits 20/80/20 (Cargill BV, NL); vital wheat gluten was obtained from Crespel and Dieters, Denmark; casein was obtained as Na-Caseinate Miprodan (MD Foods, Denmark); and gelatin was obtained as Bonegelatin (DGF Stores, Denmark).
(§3) The substrates were prepared as a 2% (w/v) aqueous solution, in which the protein concentration was determined by the method of Kjeldahl. Two hundred mg of each substrate, obtained in the form of a dry composition, was dissolved in 9 ml of tap water and the pH was adjusted to 7.0. […]
(§4) The hydrolysates were cooled and the degree of hydrolysis (DH) was assayed in microtiter plates using OPA (ortho-phtaldialdehyde, Sigma Chemical Co., St. Louis, Mo.) as the detecting reagent. The DH, defined as described in by Adler-Nissen (1986, Enzymic Hydrolysis of Food Proteins, Elsevier Applied Science Publishers), was determined by reaction of the supernatant with OPA (ortho-phtaldialdehyde, Sigma Chemical Co., St. Louis, Mo.). […]
(§5) A volume of 25 μl of suitably diluted supernatant was mixed with 200 μl of OPA reagent in a microtiter plate well and allowed to react for exactly 2 minutes at 25° C. […] The degree of hydrolysis was calculated on basis of the total amount of protein in the hydrolysis mixture (not on basis of soluble protein).

[6] = test system: soy meal, wheat gluten, casein and gelatin; assay: Protein hydrolysis, DH, summary for all substrates
Experimental: as §2, §3, §4, §5

[7] = test system: Casein; assay: Protein hydrolysis, degree of hydrolysis (DH), casein; settings: Casein 2% (w/v), pH 7.0, 18 hours at 50° C.; FLAVOURZYME 3 LAPU, carboxypeptidase 11.5 CPDU
Experimental: as §2, §3, §4, §5

[8] = Thermostability of the carboxypeptidase (residual activity); settings: 10 minute incubation, 50 mM acetate buffer
[9] = test system: Gelatin; assay: Protein hydrolysis, degree of hydrolysis (DH), gelatin; settings: Gelatin 2% (w/v), pH 7.0, 18 hours at 50° C.; FLAVOURZYME 3 LAPU, carboxypeptidase 11.5 CPDU
Experimental: as §2, §3, §4, §5

[10] = Specific activity of the carboxypeptidase (CPDU assay); settings: 0.5 mM N-CBZ-Ala-Glu, pH 4.5, 25° C.
Experimental: The activity of the carboxypeptidase was determined by measuring the rate of specific hydrolysis of N-CBZ-Ala-Glu. One carboxypeptidase unit (CPDU) is the amount of carboxypeptidase which liberates 1 micromole of glutamate per minute from a 0.5 mM N-CBZ-Ala-Glu solution at pH 4.5 and 25° C. A reagent containing o-phthaldialdehyde in combination with dithiothreitol was used to monitor the liberation of free glutamate under enzymatic hydrolysis according to the procedure of Roth, 1971, supra. The o-phthaldialdehyde reagent was a solution of o-phthaldialdehyde (6 mM) and dithiothreitol (6.5 mM) in 0.1 M sodium tetraborate. Briefly, 0.05 ml of the enzyme solution in 20 mM acetate buffer, pH 4.5 was incubated with 1 ml of substrate. At regular time intervals, a 0.3 ml aliquot was withdrawn, mixed with 0.9 ml of the o-phthaldialdehyde reagent, and the absorption at A340, using a path length of 1 cm, of the resultant product was measured. Where the dependence of A340 on the incubation time was linear, the specific activity of the enzyme was calculated using the equation: specific activity=slope (optical density per min)×11.35. By this procedure, the specific activity of the purified carboxypeptidase was determined to be 11 CPDU per mg protein which is equivalent to 11 micromoles glutamate per minute per mg protein.

[11] = test system: Wheat Gluten; assay: Protein hydrolysis, degree of hydrolysis (DH), wheat gluten; settings: Wheat Gluten 2% (w/v), pH 7.0, 18 hours at 50° C.; FLAVOURZYME 3 LAPU, carboxypeptidase 11.5 CPDU
Experimental: as §2, §3, §4, §5

C[C@H](NC(=O)OCc1ccccc1)C(=O)N1CCC[C@H]1C(=O)O [N-CBZ-Ala-Pro] (Cbz-Ala-Pro-OH)
fraction of substrate solution hydrolyzed [1]: 16%

C[C@H](NC(=O)OCc1ccccc1)C(=O)N[C@@H](Cc1ccccc1)C(=O)O [N-CBZ-Ala-Phe]
kcat relative to acid carboxypeptidases O-1 and O-2 from Aspergillus oryzae [2]: at least 8.5 fold

c1cnc2c(c1)ccc1cccnc12 [1,10-phenanthroline]
Inhibition of carboxypeptidase activity [3]: does not inhibit

O=S(=O)(F)Cc1ccccc1 [phenylmethylsulfonyl fluoride]
Inhibition of carboxypeptidase activity [3]: inhibits carboxypeptidase activity completely

B1: Aspergillus oryzae ATCC 20386 carboxypeptidase I (Aspergillus oryzae RIB40) (protein)
chain: LPGSTPASVGRRQLPKNPTGVKTLTTANNVTIRYKEPGAEGVCETTPGVKSYSGYVDTSPESHTFFWFFEARHNPETAPITLWLNGGPGSDSLIGLFEELGPCHVNSTFDDYINPHSWNEVSNLLFLSQPLGVGFSYSDTVDGSINPVTGVVENSSFAGVQGRYPTIDATLIDTTNLAAEAAWEILQGFLSGLPSLDSRVQSKDFSLWTESYGGHYGPAFFNHFYEQNERIANGSVNGVQLNFNSLGIINGIIDEAIQAPYYPEFAVNNTYGIKAVNETVYNYMKFANQMPNGCQDLISTCKQTNRTALADYALCAEATNMCRDNVEGPYYAFAGRGVYDIRHPYDDPTPPSYYNKFLAKDSVMDAIGVNINYTQSNNDVYYAFQQTGDFVWPNFIEDLEEILALPVRVSLIYGDADYICNWFGGQAVSLAANYSQAAQFRSAGYTPLKVNGVEYGETREYGNFSFTRVYEAGHEVPYYQPIASLQLFNRTIFGWDIAEGQKKIWPSYKTNGTATATHTQSSVPLPTATSMSSVGMA
Km [4]: 0.4 mM

B2: carboxypeptidase: carboxypeptidase purified from FLAVOURZYME broth, approximately 68 kDa serine carboxypeptidase, amino acid sequence SEQ ID NO: 2 (protein, listed as Aspergillus oryzae)
chain: MRGYEFLSVLPLVAASWALPGSTPASVGRRQLPKNPTGVKTLTTANNVTIRYKEPGAEGVCETTPGVKSYSGYVDTSPESHTFFWFFEARHNPETAPITLWLNGGPGSDSLIGLFEELGPCHVNSTFDDYINPHSWNEVSNLLFLSQPLGVGFSYSDTVDGSINPVTGVVENSSFAGVQGRYPTIDATLIDTTNLAAEAAWEILQGFLSGLPSLDSRVQSKDFSLWTESYGGHYGPAFFNHFYEQNERIANGSVNGVQLNFNSLGIINGIIDEAIQAPYYPEFAVNNTYGIKAVNETVYNYMKFANQMPNGCQDLISTCKQTNRTALADYALCAEATNMCRDNVEGPYYAFAGRGVYDIRHPYDDPTPPSYYNKFLAKDSVMDAIGVNINYTQSNNDVYYAFQQTGDFVWPNFIEDLEEILALPVRVSLIYGDADYICNWFGGQAVSLAANYSQAAQFRSAGYTPLKVNGVEYGETREYGNFSFTRVYEAGHEVPYYQPIASLQLFNRTIFGWDIAEGQKKIWPSYKTNGTATATHTQSSVPLPTATSMSSVGMA
DH [5]: 0
effect on DH, enzyme alone [6]: no effect
effect on the DH obtained by FLAVOURZYME when added with FLAVOURZYME [6]: enhanced
DH [7]: 0
residual activity ([8]; pH 4.0, 55° C.): 74%
residual activity ([8]; pH 4.0, 60° C.): 65%
DH [9]: 0
specific activity [10]: 11 CPDU per mg protein and 11 micromoles glutamate per minute per mg protein
DH [11]: 0

— patent publication US7091002B2, “Carboxypeptidases and nucleic acids encoding same” (Novozymes, Inc., priority 1996, dated 2006)
